In patent publication US20250129155A1 (INNOBATION BIO, published 2025):

Each molecule was assayed against CD47 on CD47-overexpressing breast cancer cell line MCF-7 (UniProt Q08722) (assay: flow cytometry on MCF-7 cells, PE anti-human CD47, 5 µl).
Chain of CD47 on CD47-overexpressing breast cancer cell line MCF-7 (Q08722 19-323 limits assumed): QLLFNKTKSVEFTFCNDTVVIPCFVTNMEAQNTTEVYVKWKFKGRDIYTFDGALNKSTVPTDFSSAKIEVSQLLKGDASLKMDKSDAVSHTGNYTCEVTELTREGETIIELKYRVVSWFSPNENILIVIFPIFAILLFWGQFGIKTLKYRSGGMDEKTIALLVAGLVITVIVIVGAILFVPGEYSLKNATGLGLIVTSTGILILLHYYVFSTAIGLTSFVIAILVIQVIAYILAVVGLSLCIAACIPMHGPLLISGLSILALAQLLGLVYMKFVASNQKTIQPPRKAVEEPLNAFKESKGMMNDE

| Mean | Median | Molecule |
| --- | --- | --- |
| 11900 | 11000 | CD47 antibody (Biolegend PE anti-human CD47, cat #323108) |

Each molecule was assayed against T1, CD47 protein (Acrobiosystems, cat #CD7-HA2E9) (UniProt Q08722 19-139) (assay: ELISA, CD47 protein coated 100 ng/well, 0.8 µg antibody per well).
T1 construct: Bought recombinant protein coated on the ELISA plate at 100 ng/well; also called CD47 antigen; CD47 peptide
Method: The purified 0.8 μg humanized antibody was treated in each well, and then reacted at room temperature for 2 hours, and then washed 3 times with 1×PBST. Secondary antibody ([…], 1:5,000) was treated and reacted at room temperature for 30 minutes, washed 3 times with 1×PBST, and then treated with TMB for color development and reacted at room temperature for 5 minutes. Finally, the reaction was terminated by treatment with a stop solution of 1 N H₂SO₄, and then the absorbance was measured at 450 nm.

T1 sequence (Q08722 19-139 limits assumed): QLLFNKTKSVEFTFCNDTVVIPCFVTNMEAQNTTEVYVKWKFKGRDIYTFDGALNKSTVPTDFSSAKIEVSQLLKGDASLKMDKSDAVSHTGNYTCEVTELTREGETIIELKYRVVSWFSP

| OD450 measurements [OD450] | Molecule |
| --- | --- |
| 2.81 | Hu3A5(V11) antibody (antibody, V domains shown) VH: EVQLVQSGSELKKPGASVKVSCKASGYTFTSYWMHWMRQAPGQGLEWIGVIDPSDSYTSYNQGFTGRFVLSVDTSVSTAYLQISSLKAEDTAVYYCARGGKRAMDYWGQGTTVTVSS VL: DVVMTQSPDSLAVSLGERATINCKSSQSLVHSNGNTYLHWYQQKPGQPPKLLIYKVSNRFSGVPDRFSGSGSGTDFTLTISSLQAEDVAVYFCSQSTHVPFTFGGGTKLEIK |
| 2.85 | Hu3A5(V12) antibody (antibody, V domains shown) VH: EVQLVQSGSELKKPGASVKVSCKASGYTFTSYWMHWMRQAPGQGLEWIGVIDPSDSYTSYNQGFTGRFVLSVDTSVSTAYLQISSLKAEDTAVYYCARGGKRAMDYWGQGTTVTVSS VL: DVVMTQSPDSLAVSLGERATINCKSSQSLVHSNGNTYLHWYQQKPGQPPKLLIYKVSNRFSGVPDRFSGSGSGTDFTLTISSLQAEDVAVYYCSQSTHVPFTFGGGTKLEIK |
| 0.111 | Hu3A5(V15) antibody (antibody, V domains shown) VH: QVQLVQSGSELKKPGASVKVSCKASGYTFTSYWMNWVRQAPGQGLEWMGVIDPSDSYTSYNQGFTGRFVFSVDTSVSTAYLQISSLKAEDTAVYYCARGGKRAMDYWGQGTTVTVSS VL: DVVMTQSPDSLAVSLGERATINCKSSQSLVHSNGNTYLHWYQQKPGQPPKLLIYKVSNRFSGVPDRFSGSGSGTDFTLTISSLQAEDVAVYFCSQSTHVPFTFGGGTKLEIK |
| 0.106 | Hu3A5(V16) antibody (antibody, V domains shown) VH: QVQLVQSGSELKKPGASVKVSCKASGYTFTSYWMNWVRQAPGQGLEWMGVIDPSDSYTSYNQGFTGRFVFSVDTSVSTAYLQISSLKAEDTAVYYCARGGKRAMDYWGQGTTVTVSS VL: DVVMTQSPDSLAVSLGERATINCKSSQSLVHSNGNTYLHWYQQKPGQPPKLLIYKVSNRFSGVPDRFSGSGSGTDFTLTISSLQAEDVAVYYCSQSTHVPFTFGGGTKLEIK |
| 2.58 | Hu3A5(V1) antibody (antibody, V domains shown) VH: EVQLVQSGAEVKKPGASVKVSCKASGYTFTSYWMHWMRQAPGQGLEWIGVIDPSDSYTSYNQKFQGRVTLTVDTSTSTAYMELSSLRSEDTAVYYCARGGKRAMDYWGQGTTVTVSS VL: DVVMTQSPLSLPVTLGQPASISCRSSQSLVHSNGNTYLHWFQQRPGQSPRLLIYKVSNRFSGVPDRFSGSGSGTDFTLKISRVEAEDVGVYFCSQSTHVPFTFGGGTKLEIK |
| 2.54 | Hu3A5 (V3) antibody (antibody, V domains shown) VH: EVQLVQSGAEVKKPGASVKVSCKASGYTFTSYWMHWMRQAPGQGLEWIGVIDPSDSYTSYNQKFQGRVTLTVDTSTSTAYMELSSLRSEDTAVYYCARGGKRAMDYWGQGTTVTVSS VL: DVVMTQSPDSLAVSLGERATINCKSSQSLVHSNGNTYLHWYQQKPGQPPKLLIYKVSNRFSGVPDRFSGSGSGTDFTLTISSLQAEDVAVYFCSQSTHVPFTFGGGTKLEIK |
| 2.65 | Hu3A5 (V9) antibody (antibody, V domains shown) VH: EVQLVQSGSELKKPGASVKVSCKASGYTFTSYWMHWMRQAPGQGLEWIGVIDPSDSYTSYNQGFTGRFVLSVDTSVSTAYLQISSLKAEDTAVYYCARGGKRAMDYWGQGTTVTVSS VL: DVVMTQSPLSLPVTLGQPASISCRSSQSLVHSNGNTYLHWFQQRPGQSPRLLIYKVSNRFSGVPDRFSGSGSGTDFTLKISRVEAEDVGVYFCSQSTHVPFTFGGGTKLEIK |
| 2.57 | Hu3A5 (V5) antibody (antibody, V domains shown) VH: QVQLVQSGAEVKKPGASVKVSCKASGYTFTSYWMHWVRQAPGQGLEWMGVIDPSDSYTSYNQKFQGRVTMTVDTSTSTAYMELSSLRSEDTAVYYCARGGKRAMDYWGQGTTVTVSS VL: DVVMTQSPLSLPVTLGQPASISCRSSQSLVHSNGNTYLHWFQQRPGQSPRLLIYKVSNRFSGVPDRFSGSGSGTDFTLKISRVEAEDVGVYFCSQSTHVPFTFGGGTKLEIK |
| 2.74 | Hu3A5 (V4) antibody (antibody, V domains shown) VH: EVQLVQSGAEVKKPGASVKVSCKASGYTFTSYWMHWMRQAPGQGLEWIGVIDPSDSYTSYNQKFQGRVTLTVDTSTSTAYMELSSLRSEDTAVYYCARGGKRAMDYWGQGTTVTVSS VL: DVVMTQSPDSLAVSLGERATINCKSSQSLVHSNGNTYLHWYQQKPGQPPKLLIYKVSNRFSGVPDRFSGSGSGTDFTLTISSLQAEDVAVYYCSQSTHVPFTFGGGTKLEIK |
| 2.69 | Hu3A5 (V2) antibody (antibody, V domains shown) VH: EVQLVQSGAEVKKPGASVKVSCKASGYTFTSYWMHWMRQAPGQGLEWIGVIDPSDSYTSYNQKFQGRVTLTVDTSTSTAYMELSSLRSEDTAVYYCARGGKRAMDYWGQGTTVTVSS VL: DVVMTQSPLSLPVTLGQPASISCRSSQSLVHSNGNTYLHWFQQRPGQSPRLLIYKVSNRFSGVPDRFSGSGSGTDFTLKISRVEAEDVGVYYCSQSTHVPFTFGGGTKLEIK |
| 0.147 | Hu3A5(V14) antibody (antibody, V domains shown) VH: QVQLVQSGSELKKPGASVKVSCKASGYTFTSYWMNWVRQAPGQGLEWMGVIDPSDSYTSYNQGFTGRFVFSVDTSVSTAYLQISSLKAEDTAVYYCARGGKRAMDYWGQGTTVTVSS VL: DVVMTQSPLSLPVTLGQPASISCRSSQSLVHSNGNTYLHWFQQRPGQSPRLLIYKVSNRFSGVPDRFSGSGSGTDFTLKISRVEAEDVGVYYCSQSTHVPFTFGGGTKLEIK |
| 0.0966 | Hu3A5(V13) antibody (antibody, V domains shown) VH: QVQLVQSGSELKKPGASVKVSCKASGYTFTSYWMNWVRQAPGQGLEWMGVIDPSDSYTSYNQGFTGRFVFSVDTSVSTAYLQISSLKAEDTAVYYCARGGKRAMDYWGQGTTVTVSS VL: DVVMTQSPLSLPVTLGQPASISCRSSQSLVHSNGNTYLHWFQQRPGQSPRLLIYKVSNRFSGVPDRFSGSGSGTDFTLKISRVEAEDVGVYFCSQSTHVPFTFGGGTKLEIK |
| 2.67 | Hu3A5 (V7) antibody (antibody, V domains shown) VH: QVQLVQSGAEVKKPGASVKVSCKASGYTFTSYWMHWVRQAPGQGLEWMGVIDPSDSYTSYNQKFQGRVTMTVDTSTSTAYMELSSLRSEDTAVYYCARGGKRAMDYWGQGTTVTVSS VL: DVVMTQSPDSLAVSLGERATINCKSSQSLVHSNGNTYLHWYQQKPGQPPKLLIYKVSNRFSGVPDRFSGSGSGTDFTLTISSLQAEDVAVYFCSQSTHVPFTFGGGTKLEIK |
| 2.45 | Hu3A5 (V8) antibody (antibody, V domains shown) VH: QVQLVQSGAEVKKPGASVKVSCKASGYTFTSYWMHWVRQAPGQGLEWMGVIDPSDSYTSYNQKFQGRVTMTVDTSTSTAYMELSSLRSEDTAVYYCARGGKRAMDYWGQGTTVTVSS VL: DVVMTQSPDSLAVSLGERATINCKSSQSLVHSNGNTYLHWYQQKPGQPPKLLIYKVSNRFSGVPDRFSGSGSGTDFTLTISSLQAEDVAVYYCSQSTHVPFTFGGGTKLEIK |
| 2.81 | Hu3A5(V10) antibody (antibody, V domains shown, also called humanized 3A5(V10) antibody; humanized Hu3A5(V10) antibody) VH: EVQLVQSGSELKKPGASVKVSCKASGYTFTSYWMHWMRQAPGQGLEWIGVIDPSDSYTSYNQGFTGRFVLSVDTSVSTAYLQISSLKAEDTAVYYCARGGKRAMDYWGQGTTVTVSS VL: DVVMTQSPLSLPVTLGQPASISCRSSQSLVHSNGNTYLHWFQQRPGQSPRLLIYKVSNRFSGVPDRFSGSGSGTDFTLKISRVEAEDVGVYYCSQSTHVPFTFGGGTKLEIK |
| 2.62 | Hu3A5 (V6) antibody (antibody, V domains shown) VH: QVQLVQSGAEVKKPGASVKVSCKASGYTFTSYWMHWVRQAPGQGLEWMGVIDPSDSYTSYNQKFQGRVTMTVDTSTSTAYMELSSLRSEDTAVYYCARGGKRAMDYWGQGTTVTVSS VL: DVVMTQSPLSLPVTLGQPASISCRSSQSLVHSNGNTYLHWFQQRPGQSPRLLIYKVSNRFSGVPDRFSGSGSGTDFTLKISRVEAEDVGVYYCSQSTHVPFTFGGGTKLEIK |

The molecules below were run against CD47 on CD47-overexpressing breast cancer cell line MCF-7 (UniProt Q08722) (assay: flow cytometry on MCF-7 cells, secondary antibody alone (background control)).

| Mean | Median | Molecule |
| --- | --- | --- |
| 80 | 73.9 | PE-conjugated goat anti-mouse IgG antibody (Biolegend Inc., cat #405307) |
